This note sets out measurements from patent US20250018014A1, “METHOD FOR TREATING AND/OR PREVENTING REGNASE-1-RELATED DISEASE” (OSAKA UNIVERSITY, priority 2018, published 2025).

Positions of bridges follow the written chain, without caps; N, C: chain ends. Non-standard residues stand in square brackets, D forms with d. *: point of attachment. Pyrrolidide = C1CCN(*)C1; dNMeA = CN[C@H](C)C(=O)O

Test in all cases: cell-based or functional assay
The target in assay [1] is T1, full-length human Regnase-1 with a FLAG tag on the N-terminal side and a biotin ligase BirA recognition … (human, UniProt Q5D1E8 1-599, biotinylated at the BirA recognition sequence when required).
T1 sequence: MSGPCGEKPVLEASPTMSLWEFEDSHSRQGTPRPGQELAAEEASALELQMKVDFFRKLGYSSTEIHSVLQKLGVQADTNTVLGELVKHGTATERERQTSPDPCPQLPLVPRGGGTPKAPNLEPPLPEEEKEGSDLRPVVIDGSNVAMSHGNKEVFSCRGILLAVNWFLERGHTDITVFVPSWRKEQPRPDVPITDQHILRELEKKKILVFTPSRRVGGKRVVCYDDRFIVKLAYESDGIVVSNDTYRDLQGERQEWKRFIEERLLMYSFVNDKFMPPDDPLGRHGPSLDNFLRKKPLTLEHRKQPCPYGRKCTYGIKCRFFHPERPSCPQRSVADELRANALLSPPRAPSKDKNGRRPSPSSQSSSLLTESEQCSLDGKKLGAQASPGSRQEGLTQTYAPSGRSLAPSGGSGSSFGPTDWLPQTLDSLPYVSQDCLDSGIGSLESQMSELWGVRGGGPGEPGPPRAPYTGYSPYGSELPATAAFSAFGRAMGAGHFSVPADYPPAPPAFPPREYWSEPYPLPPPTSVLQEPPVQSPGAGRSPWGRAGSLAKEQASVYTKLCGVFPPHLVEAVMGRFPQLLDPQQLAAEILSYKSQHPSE

The target in assay [2] is T2, C-terminal domain-deleted human Regnase-1 (amino acids 1 to 546) with N-terminal FLAG tag and C-terminal BirA … (human, UniProt Q5D1E8 1-546).
T2 sequence: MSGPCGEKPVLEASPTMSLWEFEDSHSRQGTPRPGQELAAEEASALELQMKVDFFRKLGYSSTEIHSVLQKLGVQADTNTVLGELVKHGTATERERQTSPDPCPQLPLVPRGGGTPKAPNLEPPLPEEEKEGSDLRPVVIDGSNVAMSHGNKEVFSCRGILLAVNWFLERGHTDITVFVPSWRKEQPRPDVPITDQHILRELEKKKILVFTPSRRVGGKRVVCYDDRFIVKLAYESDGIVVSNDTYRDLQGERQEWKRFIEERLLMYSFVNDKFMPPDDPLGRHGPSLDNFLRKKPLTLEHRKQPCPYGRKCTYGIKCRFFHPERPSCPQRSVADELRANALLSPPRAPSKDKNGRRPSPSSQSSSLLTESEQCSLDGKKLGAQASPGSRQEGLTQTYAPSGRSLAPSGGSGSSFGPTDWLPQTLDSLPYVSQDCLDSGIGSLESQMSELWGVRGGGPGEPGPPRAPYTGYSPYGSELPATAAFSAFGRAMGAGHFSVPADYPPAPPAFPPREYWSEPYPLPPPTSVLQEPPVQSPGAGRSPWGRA

For assay [3], the target named is T3, C-terminal human Regnase-1 (amino acids 301 to 599) with N-terminal FLAG tag and C-terminal BirA recognition … (human, UniProt Q5D1E8 301-599).
T3 sequence: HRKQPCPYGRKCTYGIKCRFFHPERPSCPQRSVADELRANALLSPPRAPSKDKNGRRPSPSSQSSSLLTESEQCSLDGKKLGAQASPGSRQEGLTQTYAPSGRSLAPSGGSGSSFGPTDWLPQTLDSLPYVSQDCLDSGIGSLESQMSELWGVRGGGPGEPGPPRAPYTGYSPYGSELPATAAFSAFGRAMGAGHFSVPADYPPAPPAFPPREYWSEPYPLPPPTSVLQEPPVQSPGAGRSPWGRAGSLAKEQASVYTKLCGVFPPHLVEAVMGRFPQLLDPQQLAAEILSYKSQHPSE

Assay [4] has as its target T1, full-length human Regnase-1 with a FLAG …. The source holds these as a separate data set.
For assay [5], the target named is T2, C-terminal domain-deleted human …. This is another data set of the same source.
Assay [6] has as its target T3, C-terminal human Regnase-1 (amino acids …). This is another data set of the same source.

B1: PP10 (peptide)
peptide: XNYQSWYYRSIWD
HELM: PEPTIDE1{[meA].N.Y.Q.S.W.Y.Y.R.S.I.W.D.[C1CCN([*:1])C1]}$PEPTIDE1,PEPTIDE1,1:R1-13:R3$$$V2.0
SMILES: CC[C@H](C)[C@@H]1NC(=O)[C@H](CO)NC(=O)[C@H](CCCNC(=N)N)NC(=O)[C@H](Cc2ccc(O)cc2)NC(=O)[C@H](Cc2ccc(O)cc2)NC(=O)[C@H](Cc2c[nH]c3ccccc23)NC(=O)[C@H](CO)NC(=O)[C@H](CCC(N)=O)NC(=O)[C@H](Cc2ccc(O)cc2)NC(=O)[C@H](CC(N)=O)NC(=O)[C@H](C)N(C)C(=O)C[C@@H](C(=O)N2CCCC2)NC(=O)[C@H](Cc2c[nH]c3ccccc23)NC1=O
Turning to B1, the “50% inhibition concentration, Regnase-1 phosphorylation by IKKβ (AlphaScreen)” value in assay [1] came out at 0.5 µM; in assay [2], 2.6 µM; in assay [3], 1.8 µM. Moreover, the “50% inhibition concentration, Regnase-1 phosphorylation by TBK1 (AlphaScreen)” value in assay [4] worked out at 0.2 µM; in assay [5], 0.2 µM; in assay [6], 0.4 µM.

B2: PP7 (peptide)
peptide: XNFNSAYYRAIWD
HELM: PEPTIDE1{[meA].N.F.N.S.A.Y.Y.R.A.I.W.D.[C1CCN([*:1])C1]}$PEPTIDE1,PEPTIDE1,1:R1-13:R3$$$V2.0
SMILES: CC[C@H](C)[C@@H]1NC(=O)[C@H](C)NC(=O)[C@H](CCCNC(=N)N)NC(=O)[C@H](Cc2ccc(O)cc2)NC(=O)[C@H](Cc2ccc(O)cc2)NC(=O)[C@H](C)NC(=O)[C@H](CO)NC(=O)[C@H](CC(N)=O)NC(=O)[C@H](Cc2ccccc2)NC(=O)[C@H](CC(N)=O)NC(=O)[C@H](C)N(C)C(=O)C[C@@H](C(=O)N2CCCC2)NC(=O)[C@H](Cc2c[nH]c3ccccc23)NC1=O
With B2, the figures for the “50% inhibition concentration, Regnase-1 phosphorylation by IKKβ (AlphaScreen)” value in assay [1], in assay [2] and in assay [3] were 0.8 µM, 4.5 µM and 3 µM, respectively. The figures for the “50% inhibition concentration, Regnase-1 phosphorylation by TBK1 (AlphaScreen)” value in assay [4], in assay [5] and in assay [6] were 2.2 µM, 4.7 µM and 4.6 µM, respectively.

B3: PP8 (peptide)
peptide: XSKYWNSWYNIWD
HELM: PEPTIDE1{[C[C@H](C(=O)[*:2])N(C)[*:1]].S.K.Y.W.N.S.W.Y.N.I.W.D.[C1CCN([*:1])C1]}$PEPTIDE1,PEPTIDE1,1:R1-13:R3$$$V2.0
SMILES: CC[C@H](C)[C@@H]1NC(=O)[C@H](CC(N)=O)NC(=O)[C@H](Cc2ccc(O)cc2)NC(=O)[C@H](Cc2c[nH]c3ccccc23)NC(=O)[C@H](CO)NC(=O)[C@H](CC(N)=O)NC(=O)[C@H](Cc2c[nH]c3ccccc23)NC(=O)[C@H](Cc2ccc(O)cc2)NC(=O)[C@H](CCCCN)NC(=O)[C@H](CO)NC(=O)[C@@H](C)N(C)C(=O)C[C@@H](C(=O)N2CCCC2)NC(=O)[C@H](Cc2c[nH]c3ccccc23)NC1=O
As to B3, the “50% inhibition concentration, Regnase-1 phosphorylation by IKKβ (AlphaScreen)” value amounted to 1.4 µM in assay [1], 7.8 µM in assay [2] and 5.7 µM in assay [3]. The “50% inhibition concentration, Regnase-1 phosphorylation by TBK1 (AlphaScreen)” value in assay [4] was 2.9 µM; in assay [5] it was 5.5 µM; in assay [6] it was 6 µM.

B4: PP9 (peptide)
peptide: [dNMeA]TYGHSSWYKIWD-Pyrrolidide
modifications: lactam N-13
Turning to B4, the “50% inhibition concentration, Regnase-1 phosphorylation by IKKβ (AlphaScreen)” value in assay [1] worked out at 2.7 µM; in assay [2] it was 6.4 µM; in assay [3], 6.2 µM. The “50% inhibition concentration, Regnase-1 phosphorylation by TBK1 (AlphaScreen)” value was determined as 4.2 µM in assay [4], 6.6 µM in assay [5] and 7.9 µM in assay [6].
